B1: LINE1-full (parent)
chain: UACGUAGGUGGUUUUCCCCUGAUAGUGCUAAGGGGGCCUGGAAGUUUGGACUGGGCAGAGCUCAACACAGCGUGGCAAAGUGGCUGUGGCUAGACUGCCUCUCUGGAUUCCUCGUCACUCAGCAGGGCAUCUCUGAGAGAAAUGCC

Variants of: B1
Assay: self-cleavage, relative activity (ratio to wild type); higher = more cleavage; in vitro, sequencing; the parent is a self-cleaving ribozyme

Row | Variant | self-cleavage
1 | UACGUAGGUGGUUUUCCCCUGAUAGUGCUACGGGGGCCUGGAAGUUUGGACUGGGCAGGGCUCAACACAGCGUGGCAAAGUGGCUGUGGCUAGACUGCCUCUCUGGAUUCCUCGUCACUCAGCAGGGCAUCUCUGAGAGAAAUGCC [A31C A59G] | 0.26
2 | AACGUAGGUGGUUUUCCCCUGAUAGUGCUAAGGGGGCCUGGAAGUUUGGACUGGGCAGAGUUCAACACAGCGUGGCAAAGUGGCUGUGGCUAGACUGCCUCUCUGGAUUCCUCGUCACUCAGCAGGGCAUCUCUGAGAGAAAUGCC [U1A C61U] | 0.08
3 | UACGUAGGUGGUUUUCCCCUGAUAGUGCUAAGGGGGCCUGGAAGUUUGGACUUGGCAGAGCUCAACACAGCGUGGCAAAGUGGCUGUGGCUAGACUGCCUCUCUGGAUUCCUCGUCACUCAGCAGGGCACCUCUGAGAGAAAUGCC [G53U U130C] | 1.5
4 | UACGUAGGUGGUUUUCCCCUGAAAGUGCCAAGGGGGCCUGGAAGUUUGGACUGGGCAGAGCUCAACACAGCGUGGCAAAGUGGCUGUGGCUAGACUGCCUCUCUGGAUUCCUCGUCACUCAGCAGGGCAUCUCUGAGAGAAAUGCC [U23A U29C] | 1.02
5 | UACGUAGGUGGUUUUCCCCUGAUAGUGCUAAGGGGGCCUGGAAGUUUGGACUGGGCAGAGCUCAACACAGCGUGGCAAAGUGGCUGUGGCUAUACUGCCUCUCUGGAUUCCUCGUCACUCAGCAGGCCAUCUCUGAGAGAAAUGCC [G93U G127C] | 0.19
6 | UACGUAGGUGGUUUUCCCCUGAUAGUGCUAAGGGGGCCUAGAAGUUUGGACUGGGCAGAGCUCAACACAGCGUGGCAAAGUGGCUGCGGCUAGACUGCCUCUCUGGAUUCCUCGUCACUCAGCAGGGCAUCUCUGAGAGAAAUGCC [G40A U87C] | 0.06
7 | UACGUAGGUGGUUUUCCCCUGAUAGUGCUAAGGGGGCCUGGAAGUUUGGACUGGGCAGAGCUCAACACAGCGUGGCAAAUUGGCUGUGGCUAGACUGCCUCUCUGGAUUCCUCGUCACUCGGCAGGGCAUCUCUGAGAGAAAUGCC [G80U A121G] | 1.5
8 | UACGUAGGUGGUUUUCCCCUGAUAGUGCUAAGGGGGCCUGGAAGUUUGGACUGGGCAGAGCUCAACACAGCGUGGCAUAGUGGCUGUGGCUAGACUGCCUCUCUGGAUUCCUCGUCACUCAGCAGGGCAUCUCUGAGAGAAUUGCC [A78U A142U] | 2.12
9 | UACGUAGGUGGUUUUCCCCUGAUAGUGCUAAGGGGGCCUGGAAGUUUGGACUGGGCAGAGCUCAACACAGCGUGGCAAAGUGGCUGUGGCUAGACCGCCUCUCUGGAUUCCUCGUCACACAGCAGGGCAUCUCUGAGAGAAAUGCC [U96C U119A] | 0.18
10 | UACGUAGGUGGUUUUCCCCUGAUAGUGCAAAGGGGGCCUGGGAGUUUGGACUGGGCAGAGCUCAACACAGCGUGGCAAAGUGGCUGUGGCUAGACUGCCUCUCUGGAUUCCUCGUCACUCAGCAGGGCAUCUCUGAGAGAAAUGCC [U29A A42G] | 1.65
11 | UACGUAGGUGGUUUUCCCCUGAUAGUGCUAACGGGGCCUGGAAGUUUGGACUGGGCAGAGCUCAACACAGCGUGGCUAAGUGGCUGUGGCUAGACUGCCUCUCUGGAUUCCUCGUCACUCAGCAGGGCAUCUCUGAGAGAAAUGCC [G32C A77U] | 0.81
12 | UACGUAGGUGGUUUCCCCCUGAUAGUGCUAAGGAGGCCUGGAAGUUUGGACUGGGCAGAGCUCAACACAGCGUGGCAAAGUGGCUGUGGCUAGACUGCCUCUCUGGAUUCCUCGUCACUCAGCAGGGCAUCUCUGAGAGAAAUGCC [U15C G34A] | 0.78
13 | UACGUAGGUGGUUUUCCCCUGAUAGUGCUAAGGGGGCCUGGAAGUUUGGACUGGGCAGAGCUCAACACAGCGUGGCAAAGUGGCUGUGGCUAGACUGCCUCUCUGGAUUCCUCGUCACUCAGCAGGGUAUCUCUGUGAGAAAUGCC [C128U A136U] | 1.67
14 | UACGUAGGUGGUUUUCCCCUGAAAGUGCUAAGGGGGCCUGGAAGUUUGGACUGGGCAGAGCUCAACACAGCGUGGCAAAGUGGCUGUGGCUAGACUGCCUCUCUGGAUUCCUCGUCACUCAGCAGGGCGUCUCUGAGAGAAAUGCC [U23A A129G] | 2.15
15 | UACGUAGGUGGUUUUCCCCUGAUAGUGCUAAGGGGGCCUGGAAGUUUGGACUGGGCAGAGCUCAACACAGCGUGGCAAAGUGGCUGUGGCUAGACUGCCACUCUGGAUUCCUCGUCACUCGGCAGGGCAUCUCUGAGAGAAAUGCC [U100A A121G] | 1.58
16 | UACGUAGGUGGUUUUCCCCUGAUAGUGCUAAGGGGGCCUGGAAGUUUGGACUGGGCAGAGCUCAACACAGCGUGGCAAAGUGGCUGUGGCUAGACUGCCUCUCUGGAUUCCUCAUCACUCAGCAGGGCAUCUCUGAGAGGAAUGCC [G114A A140G] | 1.14
17 | UACGUAGGUGGUUUUCCCCUGAUAGUGCUAAGGGGGCCUGGAAGUUUGGACUGGGCAGAGCCCAACACAGCGUGGCAAAGUGGCUGUGGCUAGACUGCCUCUCUGGAUUCCUCGUCACUCAGCAGGGCAUCUCCGAGAGAAAUGCC [U62C U134C] | 0.05
18 | UACGUAGGUGGUUUUCCCCUGAUAGUGCUAAGGGGGCCUGGAAGUUUGGACUGGGCAGAGCUCAACACAGCGUGGCAGAGUGGCUGUGGCUAGACUGCCUCUCUGGAUUCCUCGUCACUCAGCAGGGCUUCUCUGAGAGAAAUGCC [A78G A129U] | 1.17
19 | UACGUAGGUGGUUUUCCCCUGAUAGUGCUAAGGGGGCCUGGAAGUUUGAACUGGGCAGAGCUCAACACAGCGUGGCAAAGUGGCUGUGGCUAGACUGCCUCUCUGGAUUCCUCGUCACUCAGCAGGGCAUCUGUGAGAGAAAUGCC [G49A C133G] | 1.39
20 | UACGCAGGUGGUUUUCCCCUGAUAGUGCUAAGGGGGCCAGGAAGUUUGGACUGGGCAGAGCUCAACACAGCGUGGCAAAGUGGCUGUGGCUAGACUGCCUCUCUGGAUUCCUCGUCACUCAGCAGGGCAUCUCUGAGAGAAAUGCC [U5C U39A] | 0.91
